In US20040005648A1, “PYK2 related products and methods” (Sugen, Inc., priority 1994, published 2004):

Biological target: Kv1.2-HA (delayed rectifier-type potassium channel Kv1.2 with HA tag) (UniProt P63142)
Assay: cell-based or functional assay

- inhibition of outward current in Xenopus oocytes, 8 min after the addition of 100 nM PMA: 95%
Substance: PYK2 (wild type, full length)
